In publication PMC13429693, “Disease-associated genetic variants can cause missense effects in tissue-specific protein isoforms” (Nature Communications, 2026):

Substrate: Cc1cc(=O)oc2cc(NC(=O)[C@@H]3CCCN3C(=O)[C@@H](N)C(C)C)ccc12
Assay: AMC release kinetics, allosteric sigmoidal fit
Format: cell-based, Homo sapiens
Conditions: A549 overexpression lysate; […] sitagliptin to exclude DPP4
Text: AMC release kinetics, allosteric sigmoidal fit on DPP9-short (reference DPP9) | Enzyme kinetics for DPP9 reference and AFE isoforms

B1: DPP9-short (reference DPP9) (Homo sapiens) (protein)
chain: MATTGTPTADRGDAAATDDPAARFQVQKHSWDGLRSIIHGSRKYSGLIVNKAPHDFQFVQKTDESGPHSHRLYYLGMPYGSRENSLLYSEIPKKVRKEALLLLSWKQMLDHFQATPHHGVYSREEELLRERKRLGVFGITSYDFHSESGLFLFQASNSLFHCRDGGKNGFMVSPMKPLEIKTQCSGPRMDPKICPADPAFFSFINNSDLWVANIETGEERRLTFCHQGLSNVLDDPKSAGVATFVIQEEFDRFTGYWWCPTASWEGSEGLKTLRILYEEVDESEVEVIHVPSPALEERKTDSYRYPRTGSKNPKIALKLAEFQTDSQGKIVSTQEKELVQPFSSLFPKVEYIARAGWTRDGKYAWAMFLDRPQQWLQLVLLPPALFIPSTENEEQRLASARAVPRNVQPYVVYEEVTNVWINVHDIFYPFPQSEGEDELCFLRANECKTGFCHLYKVTAVLKSQGYDWSEPFSPGEDEFKCPIKEEIALTSGEWEVLARHGSKIWVNEETKLVYFQGTKDTPLEHHLYVVSYEAAGEIVRLTTPGFSHSCSMSQNFDMFVSHYSSVSTPPCVHVYKLSGPDDDPLHKQPRFWASMMEAASCPPDYVPPEIFHFHTRSDVRLYGMIYKPHALQPGKKHPTVLFVYGGPQVQLVNNSFKGIKYLRLNTLASLGYAVVVIDGRGSCQRGLRFEGALKNQMGQVEIEDQVEGLQFVAEKYGFIDLSRVAIHGWSYGGFLSLMGLIHKPQVFKVAIAGAPVTVWMAYDTGYTERYMDVPENNQHGYEAGSVALHVEKLPNEPNRLLILHGFLDENVHFFHTNFLVSQLIRAGKPYQLQIYPNERHSIRCPESGEHYEVTLLHFLQEYL
notes: 863 aa short isoform amplified from H358 cDNA or in-house plasmids; overexpressed in A549 cells, whole cell lysate; dimer
K0.5: 4.411 ± 0.752 µM
Vmax: 2.24 µmol/min/mg
